We go through one protein from patent US20050143472A1, “Novel treatment for pathologies associated with oxidative damage” (priority 2002, published 2005).

Substrate in the data set: NCCCNCCCCNCCCN
Nature of the data set: purified protein, by the assay type. The settings on record: other: apparent value, air-saturated 50 mM KH2PO4/KOH buffer pH 7.6, [O2] 237 μM.

B1: mPAO (Mus musculus) (protein)
chain: MAFPGPRVLVVGSGIAGLGAAQKLCSHRAAPHLRVLEATASAGGRIRSERCFGGVVELGAHWIHGPSQDNPVFQLAAEFGLLGEKELSEENQLVDTGGHVALPSMIWSSSGTSVSLELMTEMARLFYGLIERTREFLNESETPMASVGEFLKKEISQQVASWTEDDEDTRKRKLAILNTFFNIKCCVSGTHSMDLVALAPFGEYTVLPGLDCILAGGYQGLTDRILASLPKDTVAFDKPVKTIHWNGSFQEAAFPGETFPVLVECEDGARLPAHHVIVTVPLGFSKEHQDTFFEPPLPAKKAEAIKKLGFGTNNKIFLEFEEPFWEPDCQFIQVVWEDTSPLQDTALSLQDTWFKKLIGFLVQPSFESSHVLCGFIAGLESEFMETLSDEEVLLSLTQVLRRVTGNPQLPAAKSVLSSRWHSAPYTRGSYSYVAVGSTGDDLDLMAQPLPADGTGTQLQVLFAGEATHRTFYSTTHGALLSGWREADRLIGLWDSQAEQSRPRL
With B1, the kcat (usually the maximal rate divided by the concentration of active sites) was determined as 0.175 s⁻¹ and the kcat/Km (commonly the second-order rate constant that governs catalysis at low substrate concentration) was 247 M⁻¹ s⁻¹.
